Biological target: aatf_human AATF (UniProt Q9NY61)
Sequence (Q9NY61 whole entry): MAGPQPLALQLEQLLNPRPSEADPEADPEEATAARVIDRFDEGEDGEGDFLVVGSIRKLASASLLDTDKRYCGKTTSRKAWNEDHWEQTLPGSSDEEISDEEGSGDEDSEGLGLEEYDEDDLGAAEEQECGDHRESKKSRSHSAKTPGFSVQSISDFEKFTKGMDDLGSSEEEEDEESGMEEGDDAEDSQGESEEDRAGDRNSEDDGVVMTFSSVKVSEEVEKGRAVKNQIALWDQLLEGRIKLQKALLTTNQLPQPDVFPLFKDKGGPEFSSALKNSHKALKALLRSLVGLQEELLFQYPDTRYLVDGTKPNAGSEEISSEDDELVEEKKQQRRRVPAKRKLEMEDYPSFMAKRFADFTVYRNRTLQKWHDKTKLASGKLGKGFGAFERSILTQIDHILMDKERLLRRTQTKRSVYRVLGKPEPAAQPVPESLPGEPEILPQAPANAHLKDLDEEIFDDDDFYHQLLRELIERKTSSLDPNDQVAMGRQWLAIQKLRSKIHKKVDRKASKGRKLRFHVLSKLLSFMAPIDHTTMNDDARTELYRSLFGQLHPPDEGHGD

Substance: Serine/threonine-protein kinase ATR (Homo sapiens), Q13535 K2327R
- effect of a mutation on the interaction: disrupting interaction

From IntAct's records for PubMed 17157788
